Our source for the EC50 values is US20180312587A1 (ADURO BIOTECH HOLDINGS EUROPE B V, published 2018).

In general, EC50 refers to the concentration that produces a half-maximal response.

The target of one test is T1, hSIRP-VγC1βC2β (human, UniProt O00241 30-398).
T1 chain: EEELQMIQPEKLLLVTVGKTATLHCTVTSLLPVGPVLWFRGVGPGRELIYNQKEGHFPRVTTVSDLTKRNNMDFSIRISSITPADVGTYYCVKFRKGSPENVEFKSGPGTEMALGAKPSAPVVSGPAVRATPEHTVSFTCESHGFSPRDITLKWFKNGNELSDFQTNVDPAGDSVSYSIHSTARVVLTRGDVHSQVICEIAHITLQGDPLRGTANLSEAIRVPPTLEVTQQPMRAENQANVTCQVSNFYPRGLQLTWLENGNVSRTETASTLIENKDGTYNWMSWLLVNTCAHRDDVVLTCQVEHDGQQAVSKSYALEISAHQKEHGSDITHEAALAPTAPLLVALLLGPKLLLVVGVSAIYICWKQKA
Kind of test: CELISA, CHO-K1 transfectants, domain exchange study. From the text: Based on the fold of SIRPα/β1/γ, the extracellular region can be subdivided into three separate domains: the Ig-like (immunoglobulin-like) V-type (IgV), Ig-like C1-type (IgC1), and Ig-like C2-type (IgC2) domain. The IgV domain is also known as the ligand-binding N-terminal domain of SIRPα and SIRPγ (which binds to CD47). The human SIRPβ1/γ mutants were designed based on the full length hSIRPβ1 sequence (SEQ ID NO: 38) and each individual Ig-like domain was substituted for the equivalent domain of human SIRPγ (SEQ ID NO: 40). […] Binding of hSIRPα.40A to the exchange mutants was tested using CELISA. To this end, CHO-K1 cells were transiently transfected, using Lipofectamine 2000, with the pCI-neo vectors encoding hSIRPαV1, hSIRPαV2, hSIRPβ1, hSIRP-VγC1βC2β, hSIRP-VβC1γC2β, and hSIRP-VβC1βC2γ, respectively. The transfected cells were cultured at 37° C., 5% CO₂ and 95% humidity in medium (DMEM-F12 (Gibco) with 5% New Born Calf serum (Biowest) and Pen/Strep (Gibco)) until confluent. Subsequently, cells were trypsinized and seeded in 96-well flat-bottom tissue culture plates and cultured at 37° C., 5% CO₂ and 95% humidity in culture medium until confluent. Then, culture medium was removed and cells were incubated for 1 hour at 37° C., 5% CO₂ and 95% humidity with hSIRPα.40A, hSIRPα.50A, and anti-hSIRPα clone SE5A5 antibodies. Next, cells were washed with PBS-T and incubated for 1 hour at 37° C., 5% CO₂ and 95% humidity with goat-anti-mouse IgG-HRP conjugate (Southern Biotech). After that, cells were washed three times with PBS-T and anti-hSIRPα immunoreactivity was visualized with TMB Stabilized Chromogen (Invitrogen). Reactions were stopped with 0.5 M H₂SO₄ and absorbances were read at 450 and 610 nm.

For test [1], the target named is T2, hSIRPα expressed on primary human cells (human, UniProt P78324 31-504).
T2 construct: whole, on cells; also called hSIRPα on primary human CD14+ monocytes; on primary human granulocytes
T2 sequence (P78324 31-504): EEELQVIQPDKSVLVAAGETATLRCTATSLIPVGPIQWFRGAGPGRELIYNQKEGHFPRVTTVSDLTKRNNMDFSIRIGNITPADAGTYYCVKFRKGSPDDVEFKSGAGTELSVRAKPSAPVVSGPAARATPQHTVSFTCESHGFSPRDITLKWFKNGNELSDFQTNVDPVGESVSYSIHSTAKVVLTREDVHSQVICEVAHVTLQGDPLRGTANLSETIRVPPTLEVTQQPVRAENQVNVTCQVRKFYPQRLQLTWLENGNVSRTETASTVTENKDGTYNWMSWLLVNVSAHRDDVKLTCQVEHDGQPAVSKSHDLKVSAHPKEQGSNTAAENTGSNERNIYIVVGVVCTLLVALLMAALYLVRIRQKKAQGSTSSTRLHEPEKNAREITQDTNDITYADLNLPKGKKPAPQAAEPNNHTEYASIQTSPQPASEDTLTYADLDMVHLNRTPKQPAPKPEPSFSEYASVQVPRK
Kind of test: flow cytometry, primary CD14+ enriched monocytes, donor 2. Here is the method: Next, the binding of hSIRPα.50A to hSIRPα expressed on primary human CD14⁺ monocytes was investigated. In addition, the ability of hSIRPα.50A to block the interaction between hSIRPα and recombinant hCD47/Fc-protein was assessed. For this purpose, CD14+ monocytes were isolated from Ficoll-purified human peripheral blood mononuclear cells (PBMCs) using RosetteSep human monocyte enrichment cocktail (Stemcell). The percentage of monocytes present after the enrichment was determined by flow cytometry on the FACSVerse (BD Biosciences) based on CD14 staining using an APC-Cy7-conjugated mouse-anti-human CD14 detection antibody (BD Biosciences). […] After this labeling procedure, cells were washed two times, resuspended in PBS/1% BSA containing 0.1 μg/mL DAPI (BioLegend), and analysed by flow cytometry on the FACSVerse (BD Biosciences). Data were processed and analysed with FlowJo V10 software (FlowJo, LLC).
To assess the blocking ability of hSIRPα.50A, CD14+ enriched monocytes cells were seeded in 96-well round bottomed tissue culture plates and incubated for 45 minutes with FcR Blocking Reagent (Miltenyi Biotec) and hSIRPα.50A antibody (200 μg/mL and dilutions thereof) in PBS/1% BSA at 4° C. […] After this labeling procedure, cells were washed two times, resuspended in PBS/1% BSA containing 0.1 μg/mL DAPI (BioLegend), and analysed by flow cytometry on the FACSVerse (BD Biosciences). […]
(A flow cytometer gives signals particle by particle.)

The target in a further test is T3, human SIRPβ1 (human, UniProt O00241 30-398).
T3 construct: also called hSIRPβ1
T3 sequence (O00241 30-398 limits assumed): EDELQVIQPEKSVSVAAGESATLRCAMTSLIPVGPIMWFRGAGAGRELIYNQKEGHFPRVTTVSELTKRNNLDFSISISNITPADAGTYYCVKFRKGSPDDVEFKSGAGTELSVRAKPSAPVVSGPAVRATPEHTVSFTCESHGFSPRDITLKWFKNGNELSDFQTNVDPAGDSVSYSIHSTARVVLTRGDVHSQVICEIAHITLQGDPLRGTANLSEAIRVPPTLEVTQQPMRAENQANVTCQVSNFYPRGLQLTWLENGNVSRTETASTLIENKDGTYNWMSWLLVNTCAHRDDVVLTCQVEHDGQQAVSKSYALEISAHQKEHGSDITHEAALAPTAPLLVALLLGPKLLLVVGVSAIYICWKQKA
Kind of test: CELISA, CHO-K1 transfectants; average of two experiments. Here is the method:
The binding specificity of antibody hSIRPα.50A to hSIRPα was compared antibody KWAR23 (Canadian Patent 2939293 A1), in a CELISA format. CHO-K1 cells were transiently transfected with hSIRPαV1, hSIRPαV2, hSIRPβ1, and hSIRPγ (GenBank accession: NM_018556.3) (SEQ ID NO: 39) cDNAs. Subsequently, hSIRPα binding was assessed by CELISA using CHO-K1.hSIRPαV1, CHO-K1.hSIRPαV2, CHO-K1.hSIRPβ1, and CHO-K1.hSIRPγ cells. Detection of bound antibody was performed with goat-anti-mouse IgG-HRP (Southern Biotech) for mouse antibodies including hSIRPα.50A and control antibodies or, alternatively, with goat-anti-human IgG-HRP conjugate (Jackson Immuno Research) for the KWAR23 antibody. KWAR23 (SEQ ID NO: 130; SEQ ID NO: 131) was expressed as a chimeric human IgG4 kappa antibody in CHO cells. As shown in FIG. 2 and the following Table 9, KWAR23 antibody cross-reacts with all members of the SIRP receptor family tested: it binds to hSIRPαV1, hSIRPαV2, hSIRPβ1, and hSIRPγ.

B1: hSIRPα.50A (antibody, V domains shown)
VH: QVQLQQSGPELVKPGASVRISCKASGFTFTNYYIHWVKQRPGQGLEWIGWIYPGNVNTKYNEKFKAKATLTADKSSTTAYMQLSSLASEDSAVYFCARPTIIATDFDVWGAGTTVTVSS
VL: DIVMTQSHKFMSTSVGDRVNITCKASQGVGTAVGWYQQKPGQSPRLLIYWASTRHTGVPDRFTGSGSGTDFSLAISNVQSEDLADYFCQQYSTYPFTFGGGTNLEIK
notes: light chain constant domain not tied; also called mouse hSIRPα.50A; hSIRPα.50A.mIgG1
B1: the EC50 is 2.52 nM with hSIRP-VγC1βC2β and 3.08 nM in test [1].

B2: KWAR23 (antibody, V domains shown)
VH: EVQLQQSGAELVKPGASVKLSCTASGFNIKDYYIHWVQQRTEQGLEWIGRIDPEDGETKYAPKFQDKATITADTSSNTAYLHLSSLTSEDTAVYYCARWGAYWGQGTLVTVSS
VL: QIVLTQSPAIMSASPGEKVTLTCSASSSVSSSYLYWYQQKPGSSPKLWIYSTSNLASGVPARFSGSGSGTSYSLTISSMEAEDAASYFCHQWSSYPRTFGAGTKLELK
For B2, in the test with human SIRPβ1, a half-maximal effect (EC50) was put at 0.161 nM.
